Test results: patent US20210230287A1 (WUXI BIOLOGICS SHANGHAI, published 2021)
Each block holds one binder with its values, some of them ahead of it.

Key:
GITR = biological target: T1, GITR (human, UniProt Q9Y5U5 26-161, limits assumed); test: ELISA on plate-coated antigen, HRP goat anti-human IgG Fc, OD450-OD540; antibody concentration not given
T1 sequence (looked up): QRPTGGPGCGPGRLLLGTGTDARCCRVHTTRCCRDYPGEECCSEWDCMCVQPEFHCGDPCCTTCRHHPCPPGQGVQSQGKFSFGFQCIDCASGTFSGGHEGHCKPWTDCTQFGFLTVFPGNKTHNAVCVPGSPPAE
Description: (§1) Cross-reactivity to TNFR family members OX40, CD40 and GITR was determined by ELISA. Plates (Nunc) were coated with OX40, CD40 or GITR overnight at 4° C. After blocking and washing, anti-4-1BB antibodies were added to the plates and incubated at room temperature for 1 h. The plates were then washed and subsequently incubated with secondary antibody, HRP Conjugated Goat anti-human IgG Fc Fragment antibody (Bethyl), for 45 min. After washing, TMB substrate was added and the color reaction was stopped by 2M HCl. The absorbance at 450 and 540 nm were read using a microplate reader (Molecular Device).

OX40 = biological target: T2, OX40 (human, UniProt P43489 29-216, limits assumed); test: as above
T2 sequence (looked up): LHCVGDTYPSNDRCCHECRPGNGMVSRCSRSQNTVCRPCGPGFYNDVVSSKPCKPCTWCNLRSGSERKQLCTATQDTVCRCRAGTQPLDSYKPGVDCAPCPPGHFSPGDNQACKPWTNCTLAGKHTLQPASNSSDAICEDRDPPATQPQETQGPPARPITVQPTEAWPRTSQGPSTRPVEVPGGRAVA
Description: as §1

CD40 = CD40 (human, UniProt P25942 21-193, limits assumed); test: as above
Description: as §1

[1] = biological target: T3, mouse 4-1BB extracellular domain, His tag (mouse, UniProt P20334 24-187); test: SPR, Biacore T200; antibody captured on Protein G chip, mouse 4-1BB ECD.His as analyte
T3 construct: extracellular domain; also called mPro1.ECD.His; not shown: His tag
T3 sequence (looked up): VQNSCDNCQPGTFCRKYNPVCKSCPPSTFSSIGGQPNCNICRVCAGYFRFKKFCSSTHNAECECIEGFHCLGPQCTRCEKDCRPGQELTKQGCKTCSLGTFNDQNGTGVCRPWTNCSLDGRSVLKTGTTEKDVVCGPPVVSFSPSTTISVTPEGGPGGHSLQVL
Description: (§2) Antibodies were characterized for affinity and binding kinetics to human, cynomolgus and mouse 4-1BB by SPR assay using Biacore T200 (GE). Protein G was pre-immobilized to a sensor chip (CMS), and anti-4-1BB antibodies were captured when injected to the chip. Various concentrations of human 4-1BB and running buffer were flowed through the sensor chip for an association phase, and followed by dissociation. The association and dissociation curve was analyzed using Biacore T200 Evaluation software Version 2.0.

[2] = biological target: human 4-1BB protein (coated on ELISA plates) (human, UniProt Q07011 24-186, limits assumed); test: competition ELISA on plate-coated human 4-1BB; competitor: biotinylated BMK4, detected with streptavidin-HRP, OD450-OD540
Description: Plates were pre-coated with human 4-1BB protein at 4° C. overnight. After blocking, various concentrations of testing antibodies were pre-mixed with biotinylated BMK antibodies and added to the plates. The plates were incubated at ambient temperature for 1 hour. The binding of the BMK antibodies to human 4-1BB was detected by streptavidin-HRP. The color was developed by dispensing TMB substrate, and then stopped by 2N HCl. The absorbance was read at 450 nm and […] using a microplate spectrophotometer.

[3] = biological target: T4, human 4-1BB extracellular domain, His tag (human, UniProt Q07011 24-186); test: SPR, Biacore T200; antibody captured on Protein G chip, 4-1BB ECD.His as analyte
T4 construct: also called hPro1.ECD.His; not shown: C-terminal His tag
Description: as §2

[4] = biological target: T5, human 4-1BB, full-length, on cells (human, UniProt Q07011 24-255); test: flow cytometry on human 4-1BB-expressing CHO-K1 cells, PE goat anti-human IgG Fc, MFI
T5 construct: also called human 4-1BB expressing CHO-K1 cells; cell surface 4-1BB
Description: Human 4-1BB-expressing CHO-K1 cells were transferred into 96-well U-bottom plates at a density of 1×10⁵ cells/well. […] After washing, the secondary antibody, PE labeled Goat anti-human IgG Fc Fragment (Jackson ImmunoResearch), was applied and incubated with cells at 4° C. in the dark for 1 h. The cells were then washed and re-suspended in PBS and then analyzed by a flow cytometer (BD).

[5] = biological target: T6, cynomolgus 4-1BB extracellular domain, His tag (cynomolgus, UniProt A9YYE7 24-186); test: SPR, Biacore T200; antibody captured on Protein G chip, cynomolgus 4-1BB ECD.His as analyte
T6 construct: extracellular domain; also called cynoPro1.ECD.His; ACRO-41B-C52H4; not shown: His tag
Description: as §2

[6] = biological target: T7, mouse 4-1BB, full-length, on cells (mouse, UniProt P20334 24-256); test: flow cytometry on murine 4-1BB-expressing CHO-K1 cells, PE goat anti-human IgG Fc, MFI
T7 construct: whole, on cells; also called murine 4-1BB expressing CHO-K1 cells
Description: Murine 4-1BB-expressing CHO-K1 cells were transferred into 96-well U-bottom plates at a density of 1×10⁵ cells/well. Testing antibodies were serially diluted in PBS containing 1% BSA, and incubated with cells at 4° C. for 1 h. After washing, the secondary antibody, PE labeled Goat anti-human IgG Fc Fragment (Jackson ImmunoResearch), was applied and incubated with cells at 4° C. in the dark for 1 h. The cells were then washed and resuspended in PBS and then analyzed by flow cytometer (BD).

binding result (GITR): no binding
binding result (OX40): no binding
binding result (CD40): no binding
Kd [1]: 26100 pM
koff [1]: 0.975 s⁻¹
kon [1]: 3.73e+07 M⁻¹ s⁻¹
IC50 (read off the curve) [2]: ~900 pM
Kd [3]: 25.7 pM
koff [3]: 6.48e-05 s⁻¹
kon [3]: 2.52e+06 M⁻¹ s⁻¹
EC50 (read off the curve) [4]: ~70 pM
Kd [5]: 16.4 pM
koff [5]: 2.96e-05 s⁻¹
kon [5]: 1.81e+06 M⁻¹ s⁻¹
B1: 2.19.8-u1-3-hIgG1L (antibody, V domains shown)
VH: QVQLVESGGGLVKPGGSLRLSCAASGFTFSDYFMSWIRQAPGKGLEWVSYISNAGSSKYYADSVKGRFTISRDNAKNSLYLQMNSLRAEDTAVYYCVRDPYSGSYSGWFDPWGQGTLVTVSS
VL: SYDLTQPPSVSVSPGQTASITCSGDDLGDKYTSWYQQKPGQSPVLVVYQDHKRPSGIPERFSGSNSGNTATLTISGTQAMDEADYYCQAWDKGIVVFGGGTKLTVL
notes: Fully human antibody

binding result (GITR): no binding
binding result (OX40): no binding
binding result (CD40): no binding
Kd [1]: 18400 pM
koff [1]: 0.215 s⁻¹
kon [1]: 1.17e+07 M⁻¹ s⁻¹
IC50 (read off the curve) [2]: ~1000 pM
Kd [3]: 17.7 pM
koff [3]: 3.74e-05 s⁻¹
kon [3]: 2.11e+06 M⁻¹ s⁻¹
EC50 (read off the curve) [4]: ~60 pM
Kd [5]: 15.8 pM
koff [5]: 2.93e-05 s⁻¹
kon [5]: 1.86e+06 M⁻¹ s⁻¹
B2: 2.19.8-u1-3-hIgG4L (antibody, V domains shown)
VH: B1 VH
VL: B1 VL

binding result (GITR): no binding
binding result (OX40): no binding
binding result (CD40): no binding
EC50 (read off the curve) [6]: ~900 pM
Kd [1]: 8490 pM
koff [1]: 0.00134 s⁻¹
kon [1]: 158000 M⁻¹ s⁻¹
Kd [5]: 142 pM
koff [5]: 3.07e-05 s⁻¹
kon [5]: 217000 M⁻¹ s⁻¹
B3: 2.27.16-u1-1-hIgG1L (antibody, V domains shown)
VH: QEQLQESGPGLVKPSQTLSLTCTVSGGSINSQGYYWSWIRQHPGKGLEWIGYIYDSGSAYYNPSLERRVAISLDTSKNQFSLNLNSVTVADTAVYYCARIVAAGRIDPWGQGTLVTVSS
VL: SYVLTQPPSVSVAPGQTARMTCGGDNIGIKIVHWYQQKAGQAPVLVVYDDNDRPSGIPDRFSGSNSGNTATLTISRVAAGDEADYYCQVWDRRSDHVVFGGGTKLTVL
notes: Fully human antibody

binding result (GITR): no binding
binding result (OX40): no binding
binding result (CD40): no binding
EC50 (read off the curve) [6]: ~800 pM
Kd [1]: 6270 pM
koff [1]: 0.00136 s⁻¹
kon [1]: 217000 M⁻¹ s⁻¹
Kd [5]: 439 pM
koff [5]: 0.000101 s⁻¹
kon [5]: 230000 M⁻¹ s⁻¹
B4: 2.27.16-u1-1-hIgG4L (antibody, V domains shown)
VH: B3 VH
VL: B3 VL
